Results on 84 variants are retold here after the RNAGym collection of RNA variant scans (doi:10.1073/pnas.2313332121).

Fewer inactive variants are shown than the library holds.

First the molecules themselves.
B1: TPR 5TU (parent)
chain: GGAUCUUCUCGAUCUAACAAAAAAGACAAAUCUGCCACAAAGCUUGAGAGCAUCUUCGGAUGCAGAGGCGGCAGCCUUCGGUGGCGCGAUAGCGCCAACGUUCUCAACUAUGACACGCAAAACGCGUGCUCCGUUGAAUGGAGUUUAUCAUG

The variants in the data set derive from B1. The experiment in a line: polymerase ribozyme fitness, log enrichment relative to wild type (log ratio); higher = more active; in vitro selection for triplet polymerase activity. An outline of the steps: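 After PCR construction and transcription, each subunit's mutant library from a heterodimeric triplet polymerase ribozyme was annealed with a biotinylated primer, the partner subunit and triplets. Incubation was frozen, at −7 °C, and extended constructs were gel-excised, bound to streptavidin beads and amplified by RT-PCR, in one selection round done in triplicate. Fitness is the logarithm of a genotype's enrichment divided by that of the wild type, from inverse-variance-weighted replicate averages of Illumina-sequenced inputs and outputs. The base of the logarithm is 2, and genotypes needed ≥10 input reads and ≥1 read per output.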
Consider U90G G94U A106U, for which the “polymerase ribozyme fitness (log ratio)” value was at most -4.2.
The figure for A89G G92U C125U U146C is -1.03; for A91C G152U it is at most -4.2.
Consider G92C G124U C129U A138G U139G, for which the “polymerase ribozyme fitness (log ratio)” value is at most -4.2.
The figure for G92U C108U C125G G140C is at most -4.2; for A91G U144G it is -2.02.
In the case of U90G C96A C131G, the “polymerase ribozyme fitness (log ratio)” value was at most -4.2.
The figure for A89U U148G is -3.92; for A91G G112C it is -3.76; for A91U C95G C116A G143U A147C it is at most -4.2.
As for U90G G140C, the figure is at most -4.2; as for A89G U111C, at most -4.2.
Regarding A91U G141A, the “polymerase ribozyme fitness (log ratio)” value was -4.05.
As for U90G G126U A147U, the figure is -3.95.
As for A89U G94C A98G A150G, the figure is -2.68; as for A89C C96U A97C C99U, -3.09; as for A91C C96A A120U A122C G143U, -4.07.
With G88A G136A, the “polymerase ribozyme fitness (log ratio)” value is -3.83.
The figure for G92U A97C is -0.00996; for G92U C96U A97U A115U A121U it is -2.82; for A89C C123A G128U it is -3.31.
G92U C123A: the “polymerase ribozyme fitness (log ratio)” value is -0.758.
The figure for A89U A91U C116U is at most -4.2; for G92U A106G it is -0.318; for G92U A106C it is -0.0112.
For A91G U145A, the “polymerase ribozyme fitness (log ratio)” value was -3.07.
As for A91G U145G, the figure is -3.96.
The figure for A89G C131A is -2.5.
In the case of A91U A106U G117A G136U, the “polymerase ribozyme fitness (log ratio)” value was at most -4.2.
With A91U G140U, the “polymerase ribozyme fitness (log ratio)” value is at most -4.2.
As for C93A A98G, the figure is -1.81; as for G88U C108A, at most -4.2.
Regarding G92A C105A, the “polymerase ribozyme fitness (log ratio)” value is -3.36.
The figure for G88A A110G A122U is -3.97.
The figure for C93A A107U A110G C114U U127G is at most -4.2; for C93A U101G it is -3.29; for U90G G100A C116U it is at most -4.2.
Regarding G92C U101G G117C, the “polymerase ribozyme fitness (log ratio)” value was -1.52.
The figure for U90G C93G C99U is at most -4.2.
The figure for A89G C99G C116A is -1.92.
The figure for A91U G128A U139C A150U is at most -4.2; for C93A G100C C118G A138G it is at most -4.2; for G92A C118G it is -3.69.
Turning to A91U C114U U148G, the “polymerase ribozyme fitness (log ratio)” value is at most -4.2.
Take C93A G140A: the “polymerase ribozyme fitness (log ratio)” value was -4.11.
Regarding G88C A97C A110G, the “polymerase ribozyme fitness (log ratio)” value is at most -4.2.
The figure for A91U C108U A113U C118U C149G is at most -4.2; for G92U C93U it is -2.13.
As for C93A G94A C123U C149U, the figure is at most -4.2; as for C93A U148G G152U, at most -4.2.
As for G88U U90C G133C A137C, the figure is at most -4.2; as for A89C C93U G136C, at most -4.2.
A91U C103U U145A: the “polymerase ribozyme fitness (log ratio)” value is at most -4.2.
Take A89G C95G C132U: the “polymerase ribozyme fitness (log ratio)” value is -3.36.
As for G92A C116A G143C A150G, the figure is at most -4.2; as for G92C G124U G152U, -3.69.
The figure for A91G U127A is at most -4.2; for A91G C95G it is -3.67; for A89U A150G it is -0.42.
As for A89U A150U, the figure is 1.51; as for A91G U139G, -3.56.
For the variant A91G G92U, the “polymerase ribozyme fitness (log ratio)” value was -2.31.
As for A91U G141A U144G, the figure is at most -4.2; as for A89C C93G C96U U148G, at most -4.2.
As for A91C C108G A120U, the figure is at most -4.2; as for G88C A115U, at most -4.2; as for A89G G94A G100C, at most -4.2.
The figure for G92A A120G A121C U148C is -4.16.
Take C93A A120U: the “polymerase ribozyme fitness (log ratio)” value was -3.4.
As for A89G C125U C132U, the figure is -1.73; as for A91G C108U, -3.97; as for A91C A107U, at most -4.2.
Regarding A89G A98G G143C, the “polymerase ribozyme fitness (log ratio)” value is -3.66.
As to G92A U135A U145C, the “polymerase ribozyme fitness (log ratio)” value is -3.89.
For G88C C93G U102C G124A, the “polymerase ribozyme fitness (log ratio)” value was at most -4.2.
As for G92U A137G U145C, the figure is -1.11; as for A89C U130A, -3.07.
For the variant G88C A115U G117U C131G U135G, the “polymerase ribozyme fitness (log ratio)” value was at most -4.2.
With A91U A113C, the “polymerase ribozyme fitness (log ratio)” value is at most -4.2.
The figure for G92C U101G is -0.874.
As for G88A U144G, the figure is -3.35; as for A91U G92U C132A, at most -4.2.
The figure for G92U G141C is -1.87; for G92U G141A it is -1.81.
